From article PMC10786891, “Massively parallel profiling of RNA-targeting CRISPR-Cas13d”

T1: EsCas13d, nuclease-dead (Eubacterium siraeum, UniProt B0MS50, R295A;H300A;R849A;H854A)
T1 sequence: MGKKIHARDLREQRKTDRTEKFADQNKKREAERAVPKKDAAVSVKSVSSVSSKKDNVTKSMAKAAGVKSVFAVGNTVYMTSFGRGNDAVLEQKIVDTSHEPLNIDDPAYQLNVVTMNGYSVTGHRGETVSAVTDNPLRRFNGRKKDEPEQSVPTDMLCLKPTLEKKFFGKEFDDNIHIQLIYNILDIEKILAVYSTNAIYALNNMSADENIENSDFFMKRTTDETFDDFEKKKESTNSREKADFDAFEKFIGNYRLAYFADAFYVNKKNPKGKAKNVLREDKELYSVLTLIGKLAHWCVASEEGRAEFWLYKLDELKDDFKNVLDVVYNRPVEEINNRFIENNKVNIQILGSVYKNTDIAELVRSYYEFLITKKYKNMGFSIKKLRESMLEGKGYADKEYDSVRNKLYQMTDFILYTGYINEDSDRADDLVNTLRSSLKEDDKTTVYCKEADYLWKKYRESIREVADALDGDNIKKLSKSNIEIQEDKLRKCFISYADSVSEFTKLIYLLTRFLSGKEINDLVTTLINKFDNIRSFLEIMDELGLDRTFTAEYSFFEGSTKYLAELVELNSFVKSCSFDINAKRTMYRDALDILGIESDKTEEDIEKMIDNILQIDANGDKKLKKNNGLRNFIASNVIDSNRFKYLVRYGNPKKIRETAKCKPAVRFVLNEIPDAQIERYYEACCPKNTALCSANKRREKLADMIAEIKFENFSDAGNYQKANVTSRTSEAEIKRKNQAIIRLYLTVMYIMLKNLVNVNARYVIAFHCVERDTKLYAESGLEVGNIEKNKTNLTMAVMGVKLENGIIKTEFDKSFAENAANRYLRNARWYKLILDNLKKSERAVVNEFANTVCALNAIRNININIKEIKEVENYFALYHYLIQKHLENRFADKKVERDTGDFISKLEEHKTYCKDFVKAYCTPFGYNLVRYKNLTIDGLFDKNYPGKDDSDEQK

B1: target 2 MT 5'PFS AUA 3'PFS UAC (mixed)
RNA 1: CACCCGUGCAAAAUUGCAGGGGUCUAAAACCUUCUCCAAAUUGUUUCAUCCU
RNA 2: GGGAAUGGAUCCACAUCUACGAAUUCAUAAGGAUGAAACAAUUUGGAGAAGUACAGAUCGGAAGAGCACACGU
B2: target 2 MT 5'PFS CAC 3'PFS CCC (mixed)
RNA 1: CACCCGUGCAAAAUUGCAGGGGUCUAAAACCUUCUCCAAAUUGUUUCAUCCU
RNA 2: GGGAAUGGAUCCACAUCUACGAAUUCCACAGGAUGAAACAAUUUGGAGAAGCCCAGAUCGGAAGAGCACACGU
B3: target 2 MT 5'PFS AUU 3'PFS CGC (mixed)
RNA 1: CACCCGUGCAAAAUUGCAGGGGUCUAAAACCUUCUCCAAAUUGUUUCAUCCU
RNA 2: GGGAAUGGAUCCACAUCUACGAAUUCAUUAGGAUGAAACAAUUUGGAGAAGCGCAGAUCGGAAGAGCACACGU
B4: target 2 MT 5'PFS AUA 3'PFS UAA (mixed)
RNA 1: CACCCGUGCAAAAUUGCAGGGGUCUAAAACCUUCUCCAAAUUGUUUCAUCCU
RNA 2: GGGAAUGGAUCCACAUCUACGAAUUCAUAAGGAUGAAACAAUUUGGAGAAGUAAAGAUCGGAAGAGCACACGU
B5: target 2 MT 5'PFS AGG 3'PFS AGU (mixed)
RNA 1: CACCCGUGCAAAAUUGCAGGGGUCUAAAACCUUCUCCAAAUUGUUUCAUCCU
RNA 2: GGGAAUGGAUCCACAUCUACGAAUUCAGGAGGAUGAAACAAUUUGGAGAAGAGUAGAUCGGAAGAGCACACGU
B6: target 2 MT 5'PFS AUC 3'PFS CAU (mixed)
RNA 1: CACCCGUGCAAAAUUGCAGGGGUCUAAAACCUUCUCCAAAUUGUUUCAUCCU
RNA 2: GGGAAUGGAUCCACAUCUACGAAUUCAUCAGGAUGAAACAAUUUGGAGAAGCAUAGAUCGGAAGAGCACACGU
B7: target 2 MT 5'PFS CAC 3'PFS CCA (mixed)
RNA 1: CACCCGUGCAAAAUUGCAGGGGUCUAAAACCUUCUCCAAAUUGUUUCAUCCU
RNA 2: GGGAAUGGAUCCACAUCUACGAAUUCCACAGGAUGAAACAAUUUGGAGAAGCCAAGAUCGGAAGAGCACACGU
B8: target 2 MT 5'PFS AAA 3'PFS UAC (mixed)
RNA 1: CACCCGUGCAAAAUUGCAGGGGUCUAAAACCUUCUCCAAAUUGUUUCAUCCU
RNA 2: GGGAAUGGAUCCACAUCUACGAAUUCAAAAGGAUGAAACAAUUUGGAGAAGUACAGAUCGGAAGAGCACACGU
B9: target 2 MT 5'PFS GUA 3'PFS AAG (mixed)
RNA 1: CACCCGUGCAAAAUUGCAGGGGUCUAAAACCUUCUCCAAAUUGUUUCAUCCU
RNA 2: GGGAAUGGAUCCACAUCUACGAAUUCGUAAGGAUGAAACAAUUUGGAGAAGAAGAGAUCGGAAGAGCACACGU
B10: target 2 MT 5'PFS AUA 3'PFS UAU (mixed)
RNA 1: CACCCGUGCAAAAUUGCAGGGGUCUAAAACCUUCUCCAAAUUGUUUCAUCCU
RNA 2: GGGAAUGGAUCCACAUCUACGAAUUCAUAAGGAUGAAACAAUUUGGAGAAGUAUAGAUCGGAAGAGCACACGU
B11: target 2 MT 5'PFS AUC 3'PFS CAG (mixed)
RNA 1: CACCCGUGCAAAAUUGCAGGGGUCUAAAACCUUCUCCAAAUUGUUUCAUCCU
RNA 2: GGGAAUGGAUCCACAUCUACGAAUUCAUCAGGAUGAAACAAUUUGGAGAAGCAGAGAUCGGAAGAGCACACGU
B12: target 2 MT 5'PFS CAU 3'PFS CAG (mixed)
RNA 1: CACCCGUGCAAAAUUGCAGGGGUCUAAAACCUUCUCCAAAUUGUUUCAUCCU
RNA 2: GGGAAUGGAUCCACAUCUACGAAUUCCAUAGGAUGAAACAAUUUGGAGAAGCAGAGAUCGGAAGAGCACACGU
B13: target 2 MT 5'PFS UUG 3'PFS UCU (mixed)
RNA 1: CACCCGUGCAAAAUUGCAGGGGUCUAAAACCUUCUCCAAAUUGUUUCAUCCU
RNA 2: GGGAAUGGAUCCACAUCUACGAAUUCUUGAGGAUGAAACAAUUUGGAGAAGUCUAGAUCGGAAGAGCACACGU
B14: target 2 MT 5'PFS AGU 3'PFS UCC (mixed)
RNA 1: CACCCGUGCAAAAUUGCAGGGGUCUAAAACCUUCUCCAAAUUGUUUCAUCCU
RNA 2: GGGAAUGGAUCCACAUCUACGAAUUCAGUAGGAUGAAACAAUUUGGAGAAGUCCAGAUCGGAAGAGCACACGU
B15: target 2 MT 5'PFS CAC 3'PFS CCU (mixed)
RNA 1: CACCCGUGCAAAAUUGCAGGGGUCUAAAACCUUCUCCAAAUUGUUUCAUCCU
RNA 2: GGGAAUGGAUCCACAUCUACGAAUUCCACAGGAUGAAACAAUUUGGAGAAGCCUAGAUCGGAAGAGCACACGU
B16: target 2 MT 5'PFS GGG 3'PFS UUU (mixed)
RNA 1: CACCCGUGCAAAAUUGCAGGGGUCUAAAACCUUCUCCAAAUUGUUUCAUCCU
RNA 2: GGGAAUGGAUCCACAUCUACGAAUUCGGGAGGAUGAAACAAUUUGGAGAAGUUUAGAUCGGAAGAGCACACGU
B17: target 2 MT 5'PFS AGU 3'PFS UCU (mixed)
RNA 1: CACCCGUGCAAAAUUGCAGGGGUCUAAAACCUUCUCCAAAUUGUUUCAUCCU
RNA 2: GGGAAUGGAUCCACAUCUACGAAUUCAGUAGGAUGAAACAAUUUGGAGAAGUCUAGAUCGGAAGAGCACACGU
B18: target 2 MT 5'PFS GGG 3'PFS UUA (mixed)
RNA 1: CACCCGUGCAAAAUUGCAGGGGUCUAAAACCUUCUCCAAAUUGUUUCAUCCU
RNA 2: GGGAAUGGAUCCACAUCUACGAAUUCGGGAGGAUGAAACAAUUUGGAGAAGUUAAGAUCGGAAGAGCACACGU
B19: target 2 MT 5'PFS GUA 3'PFS AAU (mixed)
RNA 1: CACCCGUGCAAAAUUGCAGGGGUCUAAAACCUUCUCCAAAUUGUUUCAUCCU
RNA 2: GGGAAUGGAUCCACAUCUACGAAUUCGUAAGGAUGAAACAAUUUGGAGAAGAAUAGAUCGGAAGAGCACACGU
B20: target 2 MT 5'PFS UAG 3'PFS AGC (mixed)
RNA 1: CACCCGUGCAAAAUUGCAGGGGUCUAAAACCUUCUCCAAAUUGUUUCAUCCU
RNA 2: GGGAAUGGAUCCACAUCUACGAAUUCUAGAGGAUGAAACAAUUUGGAGAAGAGCAGAUCGGAAGAGCACACGU
B21: target 2 MT 5'PFS GUA 3'PFS UCG (mixed)
RNA 1: CACCCGUGCAAAAUUGCAGGGGUCUAAAACCUUCUCCAAAUUGUUUCAUCCU
RNA 2: GGGAAUGGAUCCACAUCUACGAAUUCGUAAGGAUGAAACAAUUUGGAGAAGUCGAGAUCGGAAGAGCACACGU
B22: target 2 MT 5'PFS UAG 3'PFS AGA (mixed)
RNA 1: CACCCGUGCAAAAUUGCAGGGGUCUAAAACCUUCUCCAAAUUGUUUCAUCCU
RNA 2: GGGAAUGGAUCCACAUCUACGAAUUCUAGAGGAUGAAACAAUUUGGAGAAGAGAAGAUCGGAAGAGCACACGU
B23: target 2 MT 5'PFS GGG 3'PFS UUC (mixed)
RNA 1: CACCCGUGCAAAAUUGCAGGGGUCUAAAACCUUCUCCAAAUUGUUUCAUCCU
RNA 2: GGGAAUGGAUCCACAUCUACGAAUUCGGGAGGAUGAAACAAUUUGGAGAAGUUCAGAUCGGAAGAGCACACGU
B24: target 2 MT 5'PFS GUA 3'PFS AAA (mixed)
RNA 1: CACCCGUGCAAAAUUGCAGGGGUCUAAAACCUUCUCCAAAUUGUUUCAUCCU
RNA 2: GGGAAUGGAUCCACAUCUACGAAUUCGUAAGGAUGAAACAAUUUGGAGAAGAAAAGAUCGGAAGAGCACACGU
B25: target 2 MT 5'PFS UAG 3'PFS AGG (mixed)
RNA 1: CACCCGUGCAAAAUUGCAGGGGUCUAAAACCUUCUCCAAAUUGUUUCAUCCU
RNA 2: GGGAAUGGAUCCACAUCUACGAAUUCUAGAGGAUGAAACAAUUUGGAGAAGAGGAGAUCGGAAGAGCACACGU
B26: target 1 insC 3' of 16,insG 3' of 7 (mixed)
RNA 1: CACCCGUGCAAAAAUGCAGGGGUCUAAAACUGAGCGGAUAACCUCUCUAUGG
RNA 2: GGGAAUGGAUCCACAUCUACGAAUUCGUACCAUAGACGAGGUUAUCGCGCUCACCGAGAUCGGAAGAGCACACGU
B27: target 1 insA 3' of 13,insC 3' of 10 (mixed)
RNA 1: CACCCGUGCAAAAAUGCAGGGGUCUAAAACUGAGCGGAUAACCUCUCUAUGG
RNA 2: GGGAAUGGAUCCACAUCUACGAAUUCGUACCAUAGAGAGAGUUCAUCCGCUCACCGAGAUCGGAAGAGCACACGU
B28: target 1 insU 3' of 22,insA 3' of 19 (mixed)
RNA 1: CACCCGUGCAAAAAUGCAGGGGUCUAAAACUGAGCGGAUAACCUCUCUAUGG
RNA 2: GGGAAUGGAUCCACAUCUACGAAUUCGUACUCAUAAGAGAGGUUAUCCGCUCACCGAGAUCGGAAGAGCACACGU

Target: T1, EsCas13d, nuclease-dead
Assay: crRNA (strand 1, pre-loaded); Mg2+; 40 mM Tris-HCl pH 7.5, 150 mM NaCl, 6 mM MgCl2, 1 mM DTT, 0.1% Tween-20, 0.2 mg/ml BSA; 25 C; 10 min per concentration, then washed
Conditions: tags: His6-TwinStrep-SUMO cleaved; N-terminal SNAP kept (SNAP-Surface 488); label: 3' end held by stalled T7 RNA polymerase

| Binder | Kd [nM] |
| --- | --- |
| B1 | 7.2 ± 1.6 |
| B2 | 25 ± 10 |
| B3 | 7.8 ± 0.6 |
| B4 | 5.5 ± 1.1 |
| B5 | 4.04 ± 0.32 |
| B6 | 78 ± 27 |
| B7 | 4.5 ± 1.2 |
| B8 | ~6.7 |
| B9 | 7 ± 0.6 |
| B10 | 7.1 ± 1.4 |
| B11 | 80 ± 40 |
| B12 | 3.25 ± 0.3 |
| B13 | 27.6 ± 3.4 |
| B14 | ~51 |
| B15 | ~33 |
| B16 | 48 ± 12 |
| B17 | 21.3 ± 3.4 |
| B18 | 14.9 ± 1.7 |
| B19 | 5.8 ± 0.6 |
| B20 | 1.91 ± 0.21 |
| B21 | 9.5 ± 0.7 |
| B22 | 2.53 ± 0.33 |
| B23 | 42 ± 15 |
| B24 | 5.5 ± 0.7 |
| B25 | 2.74 ± 0.24 |
| B26 | 66 ± 14 |
| B27 | 9.2 ± 0.9 |
| B28 | 80 ± 14 |
